From patent US6277558
Ends that are not written are not given here.

Molecular target: GP sera of Examples 8 to 11 (anti sera from two GP patients)
Test: inhibition ELISA: peptide preincubated with GP antibodies for 12 hours, then plates coated with α3 NC1 bovine monomer

- percent inhibition at saturation: 60%
Binder: ISRCQVCMKKRH (also: the two cysteines blocked, group not given here) [α3 carboxy terminal peptide (12 Mer synthetic peptide of human α3(IV) NC1)]
